What was measured:
[1] = target: AnxA2 10x (AnxA2 A66E 6x with R36S, V53A, T54A, K328A in addition, alkylated at Cys-8) (human) (UniProt P07355); experiment: cross-linking; Ca2+/membrane sample: AnxA2 (60 ug) bound to LUVs (100 nm, POPC:DOPC:Chol:POPS 40:20:20:20, 100 ug) with 1 mM CaCl2 in HBS pH 7.4, 0.3 mM Biotin3xNHSX-Linker added after 30 min for 30 min; 10% SDS-PAGE, Coomassie; oligomer bands above the dimer position quantified against the monomer band
[2] = target: AnxA2 6x (AnxA2 A66E with K81A, E189K, R196S, K206A, K212S, E219K, alkylated at Cys-8) (human) (UniProt P07355); experiment: as above

crosslinked oligomers, percent of wild type (% of wild type) [1] | crosslinked oligomers, percent of wild type (% of wild type) [2] | Substance
33 |  | AnxA2 10x (AnxA2 A66E 6x with R36S, V53A, T54A, K328A in addition, alkylated at Cys-8) (from UniProt P07355 21-339) (natural protein)
 | 48 | AnxA2 6x (AnxA2 A66E with K81A, E189K, R196S, K206A, K212S, E219K, alkylated at Cys-8) (from UniProt P07355 21-339) (natural protein)

Reference: article PMC7291239
